Laboratory results published in the supplement of paper PMC7125110.
± gives the standard error. Variants at the floor of the assay were thinned out.

B1: glmS ribozyme (parent)
chain: AUAAAAGCGCCAGAACUACAGAAAUGUAGUUGACGAGGAGGAGGUUUAUCGAAUUUUCGGCGGAUGCCUCCAAA

Tests used:
Conditions in all cases: with glucosamine-6-phosphate
[1] = variants of: B1; experiment: self-cleavage kobs at 640 uM GlcN6P; higher = faster cleavage; RNA array
Method in brief: (§1)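 Weighted Michaelis–Menten fits across concentrations supplied kcat and KM, based on kobs from one- or two-exponential decay fits to normalised per-tile medians. The data came from barcoded ribozyme variants transcribed in situ by E. coli RNA polymerase on sequenced MiSeq chips and tracked at 37 °C by a hybridised Cy3 probe. Glucosamine-6-phosphate (40 μM to 10 mM) in HEPES/KCl/Mg(OAc)2 buffer was flowed in.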

[2] = variants of: B1; experiment: self-cleavage kobs at 2500 uM GlcN6P; higher = faster cleavage; RNA array
Method in brief: as §1

[3] = variants of: B1; experiment: self-cleavage kobs at 10000 uM GlcN6P; higher = faster cleavage; RNA array
Method in brief: as §1

Variant | self-cleavage kobs at 640 uM GlcN6P [1] [s⁻¹] | self-cleavage kobs at 2500 uM GlcN6P [2] [s⁻¹] | self-cleavage kobs at 10000 uM GlcN6P [3] [s⁻¹]
G9A G63U C70U | < 1e-05 | – | –
G38C A48C | < 1e-05 | < 1e-05 | < 1e-05
A15G A42U C71U | 7.41e-05 ± 1.8e-05 | 0.000188 ± 5.3e-05 | –
A6U A15U G40U G43C | < 1e-05 | – | –
G13U C16G G29A A39G | 0.000103 ± 3.7e-05 | 0.000286 ± 7.5e-05 | –
A6U G9C C16G C71U | < 1e-05 | – | –
A39G U46C U47G U65A | 0.0001 ± 3.8e-05 | – | –
A12G C16G C50G C68G | 0.000104 ± 4.5e-05 | – | –
C10A A33G U45C G66A C70U | < 1e-05 | < 1e-05 | –
U30G C34U G35A C68A | 0.00169 ± 0.00067 | – | –
A12G A36C A39C C71G | < 1e-05 | < 1e-05 | –
G41A U57C C67A | < 1e-05 | < 1e-05 | –
U31C A42G G66A | 0.000315 ± 9.6e-05 | 0.00117 ± 0.00033 | –
A14G U30G A64G | 0.00462 ± 0.0017 | 0.00995 ± 0.0044 | –
A12C G13U A36U | < 1e-05 | < 1e-05 | –
G13A U45A U49A | < 1e-05 | < 1e-05 | –
G38A C61U C68U | < 1e-05 | – | –

Variant | self-cleavage kobs at 640 uM GlcN6P [1] [s⁻¹] | self-cleavage kobs at 2500 uM GlcN6P [2] [s⁻¹] | self-cleavage kobs at 10000 uM GlcN6P [3] [s⁻¹]
G37A U49A G66A | < 1e-05 | – | –
G7U G40A G60U | < 1e-05 | < 1e-05 | –
G40A G51A G59A | < 1e-05 | – | –
C8U U46G C61A C68U | < 1e-05 | – | –
G43C G44A C68A | < 1e-05 | < 1e-05 | –
G29A A52C U57G A64G C71A | < 1e-05 | – | –
A33C A42U C67A | < 1e-05 | – | –
C10U G13C A15U C16U C50G | 0.000145 ± 6.3e-05 | 0.000146 ± 5.6e-05 | –
C8U A12U G51U | < 1e-05 | < 1e-05 | –
C16U G59C G62U | < 1e-05 | – | –
G7A C16G U30G G44U A52G | < 1e-05 | < 1e-05 | –
C10A U69A | 0.00013 ± 1.9e-05 | 3.89e-05 ± 1.5e-05 | –
A15G A42C A64C U69C | < 1e-05 | – | –
C8G G13C G38U C50G | 4.5e-05 ± 2.2e-05 | – | –
C16G G29A G40A A42C | < 1e-05 | < 1e-05 | –
G13C A48U A53U C61G | < 1e-05 | – | –
G7C U46C | < 1e-05 | < 1e-05 | < 1e-05
